Data reported in patent publication US20240117334A1 (VERTEX PHARMACEUTICALS, published 2024).
“And” between values parts separate entries of the source, which are not always exact repeats. Equal entries are not always repeated.

T1: Plasma antichymotrypsin (ACT) (UniProt P01011 24-423)
T1 construct: also called plasma ACT
T1 sequence (looked up): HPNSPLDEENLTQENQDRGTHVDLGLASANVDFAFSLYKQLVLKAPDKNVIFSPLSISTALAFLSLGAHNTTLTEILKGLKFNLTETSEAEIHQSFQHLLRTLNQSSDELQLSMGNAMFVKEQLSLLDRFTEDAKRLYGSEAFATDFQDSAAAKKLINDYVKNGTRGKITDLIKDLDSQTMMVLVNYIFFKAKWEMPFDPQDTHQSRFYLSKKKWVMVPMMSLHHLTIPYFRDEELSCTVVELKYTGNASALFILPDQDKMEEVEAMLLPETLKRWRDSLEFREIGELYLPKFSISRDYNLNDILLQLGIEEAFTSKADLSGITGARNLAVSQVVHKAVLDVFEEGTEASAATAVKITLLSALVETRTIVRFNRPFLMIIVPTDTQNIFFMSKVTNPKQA


Columns and labels:
Human Factor B [1] = target: T2, Human Factor B (human, UniProt P00751 26-764); test: cell-based or functional assay
[2] = target: T1, Plasma antichymotrypsin (ACT); test: serpin inhibition of the protease
Human Factor B [3] = target: T2, Human Factor B; test: cell-based or functional assay; remark: listed apart in the source

T2 sequence (P00751 26-764 limits assumed): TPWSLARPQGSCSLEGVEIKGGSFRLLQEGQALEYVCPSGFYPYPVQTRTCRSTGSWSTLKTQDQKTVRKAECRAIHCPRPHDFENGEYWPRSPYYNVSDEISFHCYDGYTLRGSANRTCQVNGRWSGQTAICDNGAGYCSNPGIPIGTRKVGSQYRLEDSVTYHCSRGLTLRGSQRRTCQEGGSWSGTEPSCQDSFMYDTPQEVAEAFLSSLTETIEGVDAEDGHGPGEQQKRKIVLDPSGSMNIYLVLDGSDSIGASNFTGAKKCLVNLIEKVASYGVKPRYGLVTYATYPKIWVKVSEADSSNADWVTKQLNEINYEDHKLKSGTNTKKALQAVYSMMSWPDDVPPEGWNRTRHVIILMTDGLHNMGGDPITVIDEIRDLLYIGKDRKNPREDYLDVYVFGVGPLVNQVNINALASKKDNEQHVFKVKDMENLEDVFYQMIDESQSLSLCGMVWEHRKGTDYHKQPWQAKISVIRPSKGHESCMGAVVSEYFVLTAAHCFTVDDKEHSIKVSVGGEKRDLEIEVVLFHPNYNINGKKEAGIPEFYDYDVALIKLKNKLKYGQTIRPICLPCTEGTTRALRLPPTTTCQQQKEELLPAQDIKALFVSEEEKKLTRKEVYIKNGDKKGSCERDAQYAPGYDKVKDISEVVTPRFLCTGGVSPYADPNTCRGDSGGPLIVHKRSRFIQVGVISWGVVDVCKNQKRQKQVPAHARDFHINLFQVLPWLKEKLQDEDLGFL

Binder	fB Cleavage, 80% plasma EC50 (Human Factor B [1])	kapp [2] [M⁻¹ s⁻¹]	fB Cleavage EC50 (Human Factor B [1]) [nM]	Hu fB Add-Back EC50 (Human Factor B [3])
chymase C22S/K40L/F41H/L99N/F173Y/S218L/A226R (enzyme) IIGGTESKPHSRPYMAYLEIVTSNGPSLHCGGFLIRRNFVLTAAHCAGRSITVTLGAHNITEEEDTWQKLEVIKQFRHPKYNTSTNHHDIMLLKLKEKASLTLAVGTLPFPSQFNFVPPGRMCRVAGWGRTGVLKPGSDTLQEVKLRLMDPQACSHYRDFDHNLQLCVGNPRKTKSAFKGDSGGPLLCAGVAQGIVSYGRLDAKPPRVFTRISHYRPWINQILQAN	13900 nM	193	–	–
chymase C22S/K40L/F41L/L99N/G151H/F173Y/S218V/A226R (enzyme) IIGGTESKPHSRPYMAYLEIVTSNGPSLLCGGFLIRRNFVLTAAHCAGRSITVTLGAHNITEEEDTWQKLEVIKQFRHPKYNTSTNHHDIMLLKLKEKASLTLAVGTLPFPSQFNFVPPGRMCRVAGWGRTGVLKPHSDTLQEVKLRLMDPQACSHYRDFDHNLQLCVGNPRKTKSAFKGDSGGPLLCAGVAQGIVSYGRVDAKPPRVFTRISHYRPWINQILQAN	17100 nM	252	–	–
chymase C22S/K40L/F41R/L99N/F173Y/D175N/S218L/A226R (enzyme, also called MS No. 15) IIGGTESKPHSRPYMAYLEIVTSNGPSLRCGGFLIRRNFVLTAAHCAGRSITVTLGAHNITEEEDTWQKLEVIKQFRHPKYNTSTNHHDIMLLKLKEKASLTLAVGTLPFPSQFNFVPPGRMCRVAGWGRTGVLKPGSDTLQEVKLRLMDPQACSHYRNFDHNLQLCVGNPRKTKSAFKGDSGGPLLCAGVAQGIVSYGRLDAKPPRVFTRISHYRPWINQILQAN	4090 nM and 3760 nM	37	119	–
chymase C22S/S189T/A190S/A226R (enzyme) IIGGTESKPHSRPYMAYLEIVTSNGPSKFCGGFLIRRNFVLTAAHCAGRSITVTLGAHNITEEEDTWQKLEVIKQFRHPKYNTSTLHHDIMLLKLKEKASLTLAVGTLPFPSQFNFVPPGRMCRVAGWGRTGVLKPGSDTLQEVKLRLMDPQACSHFRDFDHNLQLCVGNPRKTKTSFKGDSGGPLLCAGVAQGIVSYGRSDAKPPRVFTRISHYRPWINQILQAN	–	935	605	–
chymase C22S/K40L/F41K/L99H/G151S/F173Y/S218L/A226R (enzyme) IIGGTESKPHSRPYMAYLEIVTSNGPSLKCGGFLIRRNFVLTAAHCAGRSITVTLGAHNITEEEDTWQKLEVIKQFRHPKYNTSTHHHDIMLLKLKEKASLTLAVGTLPFPSQFNFVPPGRMCRVAGWGRTGVLKPSSDTLQEVKLRLMDPQACSHYRDFDHNLQLCVGNPRKTKSAFKGDSGGPLLCAGVAQGIVSYGRLDAKPPRVFTRISHYRPWINQILQAN	17200 nM	139	–	–
chymase C22S/K40M/F41R/L99N/G151S/F173Y/S218L/A226R (enzyme) IIGGTESKPHSRPYMAYLEIVTSNGPSMRCGGFLIRRNFVLTAAHCAGRSITVTLGAHNITEEEDTWQKLEVIKQFRHPKYNTSTNHHDIMLLKLKEKASLTLAVGTLPFPSQFNFVPPGRMCRVAGWGRTGVLKPSSDTLQEVKLRLMDPQACSHYRDFDHNLQLCVGNPRKTKSAFKGDSGGPLLCAGVAQGIVSYGRLDAKPPRVFTRISHYRPWINQILQAN	11200 nM	317	–	–
chymase C22S/K40L/F41R/L99N/F173Y/S218L/A226R (enzyme) IIGGTESKPHSRPYMAYLEIVTSNGPSLRCGGFLIRRNFVLTAAHCAGRSITVTLGAHNITEEEDTWQKLEVIKQFRHPKYNTSTNHHDIMLLKLKEKASLTLAVGTLPFPSQFNFVPPGRMCRVAGWGRTGVLKPGSDTLQEVKLRLMDPQACSHYRDFDHNLQLCVGNPRKTKSAFKGDSGGPLLCAGVAQGIVSYGRLDAKPPRVFTRISHYRPWINQILQAN	15600 nM	190	379	–
chymase C22S/K40L/F41K/L99H/F173Y/S218L/A226R (enzyme) IIGGTESKPHSRPYMAYLEIVTSNGPSLKCGGFLIRRNFVLTAAHCAGRSITVTLGAHNITEEEDTWQKLEVIKQFRHPKYNTSTHHHDIMLLKLKEKASLTLAVGTLPFPSQFNFVPPGRMCRVAGWGRTGVLKPGSDTLQEVKLRLMDPQACSHYRDFDHNLQLCVGNPRKTKSAFKGDSGGPLLCAGVAQGIVSYGRLDAKPPRVFTRISHYRPWINQILQAN	14800 nM	147	–	–
chymase C22S/K40L/F41K/L99N/F173Y/D175N/S218L/A226R (enzyme, also called MS No. 8) IIGGTESKPHSRPYMAYLEIVTSNGPSLKCGGFLIRRNFVLTAAHCAGRSITVTLGAHNITEEEDTWQKLEVIKQFRHPKYNTSTNHHDIMLLKLKEKASLTLAVGTLPFPSQFNFVPPGRMCRVAGWGRTGVLKPGSDTLQEVKLRLMDPQACSHYRNFDHNLQLCVGNPRKTKSAFKGDSGGPLLCAGVAQGIVSYGRLDAKPPRVFTRISHYRPWINQILQAN	5700 nM	28	–	–
MTSP-1 A77aT/F94Y/C122S/D125G (enzyme) VVGGTDADEGEWPWQVSLHALGQGHICGASLISPNWLVSAAHCYIDDRGFRYSDPTQWTAFLGLHDQSQRSTPGVQERRLKRIISHPFYNDFTFDYDIALLELEKPAEYSSMVRPISLPGASHVFPAGKAIWVTGWGHTQYGGTGALILQKGEIRVINQTTCENLLPQQITPRMMCVGFLSGGVDSCQGDSGGPLSSVEADGRIFQAGVVSWGDGCAQRNKPGVYTRLPLFRDWIKENTGV	–	–	–	65.9 nM and 125 nM
MTSP-1 I41N/F97D/F99L/C122S/C[17]S/C[19]S (enzyme) VVGGTDADEGEWPWQVSLHALGQGHNCGASLISPNWLVSAAHCYIDDRGFRYSDPTQWTAFLGLHDQSQRSAPGVQERRLKRIISHPFFNDDTLDYDIALLELEKPAEYSSMVRPISLPDASHVFPAGKAIWVTGWGHTQYGGTGALILQKGEIRVINQTTCENLLPQQITPRMMCVGFLSGGVDSCQGDSGGPLSSVEADGRIFQAGVVSWGDGCAQRNKPGVYTRLPLFRDWIKENTGV	–	–	–	223 nM
MTSP-1 I41G/F97D/F99L/C122S/Y146D/C[17]S/C[19]S (enzyme) VVGGTDADEGEWPWQVSLHALGQGHGCGASLISPNWLVSAAHCYIDDRGFRYSDPTQWTAFLGLHDQSQRSAPGVQERRLKRIISHPFFNDDTLDYDIALLELEKPAEYSSMVRPISLPDASHVFPAGKAIWVTGWGHTQDGGTGALILQKGEIRVINQTTCENLLPQQITPRMMCVGFLSGGVDSCQGDSGGPLSSVEADGRIFQAGVVSWGDGCAQRNKPGVYTRLPLFRDWIKENTGV	–	–	–	283 nM and 395 nM
MTSP-1 I41A/F97D/F99L/C122S (enzyme) VVGGTDADEGEWPWQVSLHALGQGHACGASLISPNWLVSAAHCYIDDRGFRYSDPTQWTAFLGLHDQSQRSAPGVQERRLKRIISHPFFNDDTLDYDIALLELEKPAEYSSMVRPISLPDASHVFPAGKAIWVTGWGHTQYGGTGALILQKGEIRVINQTTCENLLPQQITPRMMCVGFLSGGVDSCQGDSGGPLSSVEADGRIFQAGVVSWGDGCAQRNKPGVYTRLPLFRDWIKENTGV	–	–	–	283 nM
MTSP-1 I41G/F97E/F99L/C122S/C[17]S/C[19]S (enzyme) VVGGTDADEGEWPWQVSLHALGQGHGCGASLISPNWLVSAAHCYIDDRGFRYSDPTQWTAFLGLHDQSQRSAPGVQERRLKRIISHPFFNDETLDYDIALLELEKPAEYSSMVRPISLPDASHVFPAGKAIWVTGWGHTQYGGTGALILQKGEIRVINQTTCENLLPQQITPRMMCVGFLSGGVDSCQGDSGGPLSSVEADGRIFQAGVVSWGDGCAQRNKPGVYTRLPLFRDWIKENTGV	–	–	–	362 nM and 358 nM and 292 nM
MTSP-1 F97L/T98G/F99V/C122S/C[17]S/C[19]S/-null_D96insD (enzyme) VVGGTDADEGEWPWQVSLHALGQGHICGASLISPNWLVSAAHCYIDDRGFRYSDPTQWTAFLGLHDQSQRSAPGVQERRLKRIISHPFFNDDLGVDYDIALLELEKPAEYSSMVRPISLPDASHVFPAGKAIWVTGWGHTQYGGTGALILQKGEIRVINQTTCENLLPQQITPRMMCVGFLSGGVDSCQGDSGGPLSSVEADGRIFQAGVVSWGDGCAQRNKPGVYTRLPLFRDWIKENTGV	–	–	–	4590 nM and 3490 nM
